Assay results: patent US20030059461A1

How the values were obtained:
[1] = molecular target: KDR/flk-1 receptor on 293/KDR or PAE/KDR cells (UniProt P35968); assay: cell-based or functional assay
[2] = molecular target: S-peptide fragment of bovine pancreatic ribonuclease A (bovine); assay: cell-based or functional assay

KDR/flk-1 receptor on 293/KDR or PAE/KDR cells, sequence (P35968 20-1356 limits assumed): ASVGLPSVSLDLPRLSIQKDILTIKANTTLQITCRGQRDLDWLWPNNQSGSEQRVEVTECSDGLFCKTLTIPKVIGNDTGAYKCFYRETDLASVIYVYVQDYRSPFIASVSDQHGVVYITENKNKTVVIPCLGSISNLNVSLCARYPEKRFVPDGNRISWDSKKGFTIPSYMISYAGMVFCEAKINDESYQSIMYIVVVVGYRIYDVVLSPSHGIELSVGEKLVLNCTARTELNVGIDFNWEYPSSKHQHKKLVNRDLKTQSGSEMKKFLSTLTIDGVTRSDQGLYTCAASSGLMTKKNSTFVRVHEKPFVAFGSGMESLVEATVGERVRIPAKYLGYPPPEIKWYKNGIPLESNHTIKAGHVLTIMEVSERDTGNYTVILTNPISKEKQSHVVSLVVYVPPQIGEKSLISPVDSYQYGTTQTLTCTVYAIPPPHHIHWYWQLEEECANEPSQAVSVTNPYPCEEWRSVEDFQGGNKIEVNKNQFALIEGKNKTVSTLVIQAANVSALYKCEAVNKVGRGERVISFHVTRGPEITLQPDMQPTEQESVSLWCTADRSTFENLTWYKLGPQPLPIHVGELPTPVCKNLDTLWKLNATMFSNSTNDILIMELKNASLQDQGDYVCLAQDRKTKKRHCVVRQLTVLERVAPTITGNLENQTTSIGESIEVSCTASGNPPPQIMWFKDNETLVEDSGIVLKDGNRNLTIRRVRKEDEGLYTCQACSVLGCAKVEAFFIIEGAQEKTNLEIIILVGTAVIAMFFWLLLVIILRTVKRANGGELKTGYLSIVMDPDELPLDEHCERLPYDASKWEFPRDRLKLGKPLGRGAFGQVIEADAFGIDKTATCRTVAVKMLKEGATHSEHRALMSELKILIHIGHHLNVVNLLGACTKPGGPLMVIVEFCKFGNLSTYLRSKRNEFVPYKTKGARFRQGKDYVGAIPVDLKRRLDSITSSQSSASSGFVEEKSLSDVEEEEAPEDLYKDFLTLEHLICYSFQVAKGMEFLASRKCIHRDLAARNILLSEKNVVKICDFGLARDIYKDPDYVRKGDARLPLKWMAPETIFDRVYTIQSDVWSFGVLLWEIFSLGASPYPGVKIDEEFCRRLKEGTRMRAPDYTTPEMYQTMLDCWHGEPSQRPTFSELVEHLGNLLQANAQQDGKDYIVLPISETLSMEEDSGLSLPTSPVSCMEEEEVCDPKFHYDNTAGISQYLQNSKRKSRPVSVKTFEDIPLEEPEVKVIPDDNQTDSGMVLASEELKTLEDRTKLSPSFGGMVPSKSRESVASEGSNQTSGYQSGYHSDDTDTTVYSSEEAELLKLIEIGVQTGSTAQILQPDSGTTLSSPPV
MBS-modified S-protein, 40-fold molar excess of sulfo-MBS, sequence (P61823 47-150): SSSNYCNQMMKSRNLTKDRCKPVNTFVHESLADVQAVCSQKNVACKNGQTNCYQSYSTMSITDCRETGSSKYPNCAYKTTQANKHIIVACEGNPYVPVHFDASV
MBS-modified S-protein, 10-fold molar excess of sulfo-MBS, sequence (P61823 47-150): as above
MBS-modified S-protein, 2-fold molar excess of sulfo-MBS, sequence (P61823 47-150): as above
S-protein fragment of bovine ribonuclease (Sigma), sequence (P61823 47-150): as above
MBS-modified S-protein, 20-fold molar excess of sulfo-MBS, sequence (P61823 47-150): as above
Lip(Dox)-SP-FVEGF121 complex, sequence (P15692 other isoform, or with tags, fused parts or gaps): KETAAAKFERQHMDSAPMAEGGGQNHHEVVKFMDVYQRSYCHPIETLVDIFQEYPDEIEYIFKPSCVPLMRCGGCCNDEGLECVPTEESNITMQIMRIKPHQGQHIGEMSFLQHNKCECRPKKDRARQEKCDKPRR
Lip(Dox)-SP-FVEGF121 complex, sequence (P61823 47-150): as the sequence (P61823 47-150) above

“Lip(Dox)-SP-FVEGF121 complex (from UniProt P15692 27-147; P61823 47-150)” showed an IC50 of growth inhibition of 293/KDR cells [1] of 5 nM.

Substance “MBS-modified S-protein, 2-fold molar excess of sulfo-MBS (from UniProt P61823 47-150)” has a Ribonuclease Activity (%), S-tag Rapid Assay Kit; SulphoMBS molar excess: 2 [2] of 57%.

“MBS-modified S-protein, 10-fold molar excess of sulfo-MBS (from UniProt P61823 47-150)” showed a Ribonuclease Activity (%), S-tag Rapid Assay Kit; SulphoMBS molar excess: 10 [2] of 38%.

“MBS-modified S-protein, 20-fold molar excess of sulfo-MBS (from UniProt P61823 47-150)” was tested, and the Ribonuclease Activity (%), S-tag Rapid Assay Kit; SulphoMBS molar excess: 20 [2] was 36%.

“MBS-modified S-protein, 40-fold molar excess of sulfo-MBS (from UniProt P61823 47-150)” was tested, and the Ribonuclease Activity (%), S-tag Rapid Assay Kit; SulphoMBS molar excess: 40 [2] was 25%.

Work on “S-protein fragment of bovine ribonuclease (Sigma) (from UniProt P61823 47-150)” yielded a Ribonuclease Activity (%), S-tag Rapid Assay Kit; SulphoMBS molar excess: none [2] of 100%.
